{"source": "patent US20210363526A1", "about": "“Use of Non-Coding Nucleic Acid for Crop Improvement and Protection Against Microbes” (University of Kentucky Research Foundation, priority 2020, published 2021)", "molecules": {"B1": {"name": "TAS3a transcript: exogenously applied in vitro transcribed TAS3a RNA, length not stated at the place (figure legends: 555 nt) (nucleic acid, listed as Arabidopsis thaliana)", "chain": "AUCCCACCGUUUCUUAAGACUCUCUCUCUUUCUGUUUUCUAUUUCUCUCUCUCUCAAAUGAAAGAGAGAGAAGAGCUCCCAUGGAUGAAAUUAGCGAGACCGAAGUUUCUCCAAGGCAUUAAGGAAAACAUAACCUCCGUGAUGCAUAGAGAUUAUUGGAUCCGCUGUGCUGAGACAUUGAGUUUUUCUUCGGCAUUCCAGUUUCAAUGAUAAAGCGGUGUUAUCCUAUCUGAGCUUUUAGUCGGAUUUUUUCUUUUCAAUUAUUGUGUUUUAUCUAGAUGAUGCAUUUCAUUAUUCUCUUUUUCUUGACCUUGUAAGGCCUUUUCUUGACCUUGUAAGACCCCAUCUCUUUCUAAACGUUUUAUUAUUUUCUCGUUUUACAGAUUCUAUUCUAUCUCUUCUCAAUAUAGAAUAGAUAUCUAUCUCUACCUCUAAUUCGUUCGAGUCAUUUUCUCCUACCUUGUCUAUCCCUCCUGAGCUAAUCUCCACAUAUAUCUUUUGUUUGUUAUUGAUGUAUGGUUGACAUAAAUUCAAUAAAGAAGUUGACGUUUUUCU"}}, "key": {"[1]": {"system": "Pseudomonas syringae DC 3000", "test": "SAR (systemic acquired resistance) assay: local treatment, distal leaves challenged with virulent pathogen", "type": "in vivo, Arabidopsis", "settings": "for SAR in tas3a mutant plants: localized application to tas3a plants, AzA 1000 μM; for SAR in tas3a mutant plants / SAR in ago1 plants / SAR in ago7 plants: SA 500 μM, Pip 1000 μM, G3P 100 μM, DC3000 48 h later; for SAR in ago1 plants: localized application to ago1 plants; for SAR in ago7 plants: localized application to ago7 plants", "description": "Pathogen infection and collection of phloem exudate—Inoculations with Pseudomonas syringae DC 3000 were conducted as described before. The bacterial cultures were grown overnight in King's B medium containing rifampicin and/or kanamycin. For analysis of SAR, the primary leaves were inoculated with MgCl2 or the avr bacteria (10^7 cfu ml^−1) and, 48 h later, the systemic leaves were inoculated with vir bacteria (10^5 cfu m1^−1). Unless noted otherwise, samples from the systemic leaves were harvested at 3 dpi. Petiole exudates were collected in diethyl pyrocarbonate (DEPC) treated water as described earlier. […] PEX RNA was extracted using the TRIzol reagent, quantified using nanodrop and cDNA synthesized from PEX RNA was evaluated for contamination with leaf RNA by assaying for amplification of Rubisco genes. Each sample was run in triplicates and UBC9 expression levels were used as internal control for normalization. Cycle threshold values were calculated by SDS 2.3 software.\nChemical and RNA treatments—SA, G3P, AzA, and Pip treatments were carried out by using 500 μM, 100 μM, 1000 μM, and 1000 μM solutions, respectively. TAS3a RNA was suspended at a concentration of 0.0075-75 ng/μ1 of DEPC water and ˜40 μl was infiltrated per leaf. AzA was prepared in methanol and diluted in water. SA, G3P and Pip were prepared and diluted in water. All dilutions were freshly prepared prior to performing biological experiments.\nStatistics and reproducibility—For pathogen assays, ˜16 plants/ genotype/treatment were analyzed in a single experiment. At least 3-4 technical replicates/genotype/treatment were plated. For metabolite quantification, ˜12 plants/genotype/treatment were analyzed in each experiment. Unless otherwise mentioned error bars indicate SD."}, "[2]": {"system": "auxin responsive factor (ARF) 3", "test": "Real-time quantitative RT-PCR of ARF3 expression after TAS3a transcript application", "type": "in vivo, Arabidopsis", "settings": "Col-0 plants, exogenous application, 24 h", "text": "FIGS. 9A-H show images and graphs illustrating that TAS3a RNA contains two overlapping open reading frames. (A) Nucleotide sequence of mature TAS3a RNA (SEQ ID NO: 1). Region shaded in purple and gray indicates overlapping open reading frames. Nucleotides shaded in yellow are miR390-AGO7 targeting sites on TAS3a transcript. Arrows indicate position of forward and reverse primers used for quantitative RT-PCR. Residues in red indicate alternate polyadenylation sites. (B) Real-time quantitative RT-PCR showing relative expression levels of ARF3 in Col-0 plants treated with buffer or Tas3a555 for 24 h. The error bars indicate SD (n=4). Results are representative of two independent experiments. Asterisks denote a significant difference (t test, P<0.0001). […] Fresh protoplasts (10^6/ml) were incubated with 2 μM ^32P-TAS3a555 for 1 h, analyzed microscopically before and after four washes and quantified for the amount of radiolabel. […]\nRNA extraction, quantitative real-time PCR, and in vitro transcription—Small-scale extraction of RNA from two or three leaves (per sample) was performed with the TRIzol reagent (Invitrogen, CA), following the manufacturer's instructions. RNA quality and concentration were determined by gel electrophoresis and determination of A260. […] Quantitative RT-PCR was carried out as described before. […] Cycle threshold values were calculated by SDS 2.3 software."}, "isolated protoplasts": {"system": "isolated protoplasts", "test": "Uptake assay of 32P-TAS3a555 into isolated protoplasts", "type": "cell-based, Arabidopsis", "settings": "protoplasts incubated with 2 μM 32P-TAS3a555 for 1 h", "text": "FIGS. 9A-H show images and graphs illustrating that TAS3a RNA contains two overlapping open reading frames. (A) Nucleotide sequence of mature TAS3a RNA (SEQ ID NO: 1). Region shaded in purple and gray indicates overlapping open reading frames. Nucleotides shaded in yellow are miR390-AGO7 targeting sites on TAS3a transcript. Arrows indicate position of forward and reverse primers used for quantitative RT-PCR. Residues in red indicate alternate polyadenylation sites. (B) Real-time quantitative RT-PCR showing relative expression levels of ARF3 in Col-0 plants treated with buffer or Tas3a555 for 24 h. The error bars indicate SD (n=4). Results are representative of two independent experiments. Asterisks denote a significant difference (t test, P<0.0001). (C) Uptake assays showing percentage of ^32P-TAS3a555 transported into isolated protoplasts. Fresh protoplasts (10^6/ml) were incubated with 2 μM ^32P-TAS3a555 for 1 h, analyzed microscopically before and after four washes and quantified for the amount of radiolabel. The experiment was repeated three times with similar results. (D) RNA gel electrophoresis of in vitro synthesized TAS3a transcripts used in this study. (E) Typical morphological phenotypes of DC3000 inoculated distal leaves of Col-0 and tas3a plants. […]"}, "SA": {"system": "SA", "test": "SA quantification after localized TAS3a application", "type": "in vivo, Arabidopsis", "settings": "Col-0, localized application"}, "Pip": {"system": "Pip", "test": "Pip quantification after localized TAS3a application", "type": "in vivo, Arabidopsis", "settings": "Col-0, localized application"}, "ROS": {"system": "ROS", "test": "ROS (H2O2, DAB staining) after localized TAS3a application", "type": "in vivo, Arabidopsis", "settings": "Col-0, localized application", "description": "FIGS. 12A-D show graphs and images illustrating that exogenous application of TAS3a induces G3P but not SA, Pip, or ROS. (A) SA (left panel) and SAG (right panel) levels in Col-0 plants infiltrated with MgCl2, avrRpt2 or TAS3a transcripts. Leaf samples were collected 24 and 48 h post treatments. The error bars indicate SD (n=4). Asterisks denote a significant difference with respective mock-inoculated samples (t test, P<0.0001). (B) Pip levels in local tissues of Col-0 plants infiltrated with MgCl2 (mock), avrRpt2 or TAS3a transcripts. The leaves were sampled 48 h post treatments. Asterisks denote a significant difference with mock (t test, P<0.0001). The experiment was repeated two times with similar results. (C) H2O2 levels in local tissues of Col-0 plants after mock (MgCl2), pathogen (avrRpt2) or TAS3a treatments. The leaves were sampled 24 h post treatments and stained with DAB (3,3-diaminobenzidine). The experiment was repeated two times with similar results. (D) G3P levels in local tissues of water or 555 bp TAS3a transcript treated Col-0 plants. The leaves were sampled 24 h post treatments and the experiment was repeated two times with similar results. Asterisks denote a significant difference with respective mock-inoculated samples (t test, P<0.001)."}, "G3P": {"system": "G3P", "test": "G3P quantification after localized TAS3a application", "type": "in vivo, Arabidopsis", "settings": "Col-0, localized application, 24 h"}}, "note": "Entries after “also recorded” stand apart in the source; their conditions may differ.", "data": [{"molecule": "O=C(O)CCCCCCCC(=O)O", "note": "[AzA, azelaic acid]", "values": [{"measurement": "SAR in tas3a mutant plants", "setting": "[1]", "result": "did not restore SAR"}]}, {"molecule": "O=P(O)(O)OCC(O)CO", "note": "(stereo not drawn) [G3P, glycerol-3-phosphate]", "values": [{"measurement": "SAR in ago1 plants", "setting": "[1]", "result": "unable to restore SAR"}, {"measurement": "SAR in ago7 plants", "setting": "[1]", "result": "unable to restore SAR"}, {"measurement": "SAR in tas3a mutant plants", "setting": "[1]", "result": "did not restore SAR"}]}, {"molecule": "O=C(O)C1CCCCN1", "note": "(stereo not drawn) [Pip, pipecolic acid]", "values": [{"measurement": "SAR in ago1 plants", "setting": "[1]", "result": "unable to restore SAR"}, {"measurement": "SAR in ago7 plants", "setting": "[1]", "result": "unable to restore SAR"}, {"measurement": "SAR in tas3a mutant plants", "setting": "[1]", "result": "did not restore SAR"}]}, {"molecule": "O=C(O)c1ccccc1O", "note": "[SA, salicylic acid]", "values": [{"measurement": "SAR in ago1 plants", "setting": "[1]", "result": "unable to restore SAR"}, {"measurement": "SAR in ago7 plants", "setting": "[1]", "result": "unable to restore SAR"}, {"measurement": "SAR in tas3a mutant plants", "setting": "[1]", "result": "did not restore SAR"}]}, {"molecule": "B1", "values": [{"measurement": "SAR induction in wild-type plants", "setting": "[1]; localized application to wild-type Col-0, virulent DC3000 inoculated on distal leaves 48 h post-local treatment, transcripts 0.039 nmol/ml, Tasi-ARFs 1 μM (figure legends)", "result": "confer robust SAR; also recorded: able to induce SAR"}, {"measurement": "expression of TAS3a target gene ARF3", "setting": "[2]", "result": "suppressed"}, {"measurement": "uptake in isolated protoplasts", "setting": "isolated protoplasts", "result": "confirmed by uptake"}, {"measurement": "SA accumulation", "setting": "SA", "result": "did not induce"}, {"measurement": "SA accumulation", "setting": "SA; listed as TAS3a", "result": "not"}, {"measurement": "Pip accumulation", "setting": "Pip", "result": "did not induce"}, {"measurement": "Pip accumulation", "setting": "Pip; listed as TAS3a", "result": "not"}, {"measurement": "ROS accumulation", "setting": "ROS", "result": "did not induce"}, {"measurement": "ROS accumulation", "setting": "ROS; listed as TAS3a", "result": "not"}, {"measurement": "G3P levels", "setting": "G3P", "result": "did increase"}, {"measurement": "G3P levels", "setting": "G3P; listed as TAS3a", "result": "induces"}]}]}
